Source: paper PMC4608766, “The Roles of Arabidopsis CDF2 in Transcriptional and Posttranscriptional Regulation of Primary MicroRNAs” (PLoS Genetics, 2015)

Legend:
[1] = target: T1, GST-CDF2 (Arabidopsis, UniProt Q93ZL5 1-457); assay: pull-down; GST pull-down: GST-CDF2 (or GST) on glutathione beads, MBP-DCL1-RBD added; 40 mM HEPES-KOH pH 7.5, 10 mM KCl, 3 mM MgCl2, 0.4 M sucrose, 1 mM EDTA, 1 mM DTT, 0.2% Triton X-100; 4 C, 1 h; immunoblot; conditions: both partners purified
T1 construct: cycling DOF factor 2 (CDF2), Arabidopsis
T1 sequence (looked up): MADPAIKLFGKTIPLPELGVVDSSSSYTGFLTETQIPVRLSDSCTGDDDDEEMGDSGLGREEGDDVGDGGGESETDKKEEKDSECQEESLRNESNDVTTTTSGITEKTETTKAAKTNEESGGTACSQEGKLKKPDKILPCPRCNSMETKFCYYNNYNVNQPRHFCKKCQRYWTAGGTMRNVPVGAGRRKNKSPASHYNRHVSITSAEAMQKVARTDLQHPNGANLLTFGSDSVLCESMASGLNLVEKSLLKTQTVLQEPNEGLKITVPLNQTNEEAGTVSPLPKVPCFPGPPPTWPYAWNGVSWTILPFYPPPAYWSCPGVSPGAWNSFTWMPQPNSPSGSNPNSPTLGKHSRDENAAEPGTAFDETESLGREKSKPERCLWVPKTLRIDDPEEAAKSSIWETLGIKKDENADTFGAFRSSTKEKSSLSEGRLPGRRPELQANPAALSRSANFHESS

[2] = target: T2, MBP-CDF2 (Arabidopsis, UniProt Q93ZL5 1-457); assay: pull-down; MBP pull-down: MBP-CDF2 (or MBP) on amylose resin, GST-DCL1-RBD added; 40 mM HEPES-KOH pH 7.5, 10 mM KCl, 3 mM MgCl2, 0.4 M sucrose, 1 mM EDTA, 1 mM DTT, 0.2% Triton X-100; 4 C, 1 h; immunoblot; conditions: both partners purified
T2 construct: cycling DOF factor 2 (CDF2), Arabidopsis; source: E. coli BL21 (DE3), purified (New England Biolabs protocol)
T2 sequence (looked up): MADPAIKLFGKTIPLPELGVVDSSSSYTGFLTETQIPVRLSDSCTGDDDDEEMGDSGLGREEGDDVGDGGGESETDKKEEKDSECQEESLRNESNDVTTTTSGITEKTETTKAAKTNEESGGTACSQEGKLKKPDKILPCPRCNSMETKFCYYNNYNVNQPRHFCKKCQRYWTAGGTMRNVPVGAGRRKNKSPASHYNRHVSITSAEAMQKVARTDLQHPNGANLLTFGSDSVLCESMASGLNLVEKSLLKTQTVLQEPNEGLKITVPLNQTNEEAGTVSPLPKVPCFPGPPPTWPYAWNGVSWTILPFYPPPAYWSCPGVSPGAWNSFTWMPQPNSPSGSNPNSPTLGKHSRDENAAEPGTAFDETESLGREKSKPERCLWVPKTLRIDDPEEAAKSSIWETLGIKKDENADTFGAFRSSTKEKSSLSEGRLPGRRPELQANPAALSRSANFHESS

Row | Binder | binding result [1] | binding result [2]
1 | MBP-DCL1-RBD (domain or fragment, Arabidopsis, UniProt Q9SP32 1733-1909, looked up, Dicer-like 1 (DCL1), Arabidopsis, the two C-terminal dsRBDs (DCL1-RBD, defined as aa 1733-1910); The limits are those printed where the name DCL1-RBD is defined; the methods of the pull-down give none; source: E. coli BL21 (DE3), purified (New England Biolabs protocol)) HPVRELQERCQQQAEGLEYKASRSGNTATVEVFIDGVQVGVAQNPQKKMAQKLAARNALAALKEKEIAESKEKHINNGNAGEDQGENENGNKKNGHQPFTRQTLNDICLRKNWPMPSYRCVKEGGPAHAKRFTFGVRVNTSDRGWTDECIGEPMPSVKKAKDSAAVLLLELLNKTFS | binds | –
2 | GST-DCL1-RBD (domain or fragment, Arabidopsis, UniProt Q9SP32 1733-1909, looked up, Dicer-like 1 (DCL1), Arabidopsis, the two C-terminal dsRBDs (DCL1-RBD, defined as aa 1733-1910); The limits are those printed where the name DCL1-RBD is defined; the methods of the pull-down give none) HPVRELQERCQQQAEGLEYKASRSGNTATVEVFIDGVQVGVAQNPQKKMAQKLAARNALAALKEKEIAESKEKHINNGNAGEDQGENENGNKKNGHQPFTRQTLNDICLRKNWPMPSYRCVKEGGPAHAKRFTFGVRVNTSDRGWTDECIGEPMPSVKKAKDSAAVLLLELLNKTFS | – | binds
